T1: DENV-2 NS1 wild type without hexa-histidine tag (Dengue virus serotype 2 (DENV-2), strain 16681), P29990
T1 chain: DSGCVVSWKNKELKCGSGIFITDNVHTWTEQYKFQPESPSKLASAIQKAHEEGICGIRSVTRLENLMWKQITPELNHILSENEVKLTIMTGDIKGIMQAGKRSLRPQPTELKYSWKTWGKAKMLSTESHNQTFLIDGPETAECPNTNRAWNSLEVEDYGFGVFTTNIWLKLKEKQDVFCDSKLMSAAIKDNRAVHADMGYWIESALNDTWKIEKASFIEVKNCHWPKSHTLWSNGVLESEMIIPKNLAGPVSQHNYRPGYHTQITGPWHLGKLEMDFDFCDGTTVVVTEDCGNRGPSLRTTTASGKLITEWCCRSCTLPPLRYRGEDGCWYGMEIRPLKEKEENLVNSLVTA


Tests used:
[1] = molecular target: DENV-2 NS1 N130Q with carboxy-terminal hexa-histidine tag (Dengue virus serotype 2 (DENV-2), strain 16681); test: non-reducing SDS-PAGE with Western blot
[2] = molecular target: T1, DENV-2 NS1 wild type without …; test: SEC; details: remark: other sources report otherwise

Molecule | stoichiometry N [1] | stoichiometry N [2]
DENV-2 NS1 N130Q with carboxy-terminal hexa-histidine tag (natural protein) | 2 | –
DENV-2 NS1 wild type without hexa-histidine tag, P29990 776-1127 (natural protein) DSGCVVSWKNKELKCGSGIFITDNVHTWTEQYKFQPESPSKLASAIQKAHEEGICGIRSVTRLENLMWKQITPELNHILSENEVKLTIMTGDIKGIMQAGKRSLRPQPTELKYSWKTWGKAKMLSTESHNQTFLIDGPETAECPNTNRAWNSLEVEDYGFGVFTTNIWLKLKEKQDVFCDSKLMSAAIKDNRAVHADMGYWIESALNDTWKIEKASFIEVKNCHWPKSHTLWSNGVLESEMIIPKNLAGPVSQHNYRPGYHTQITGPWHLGKLEMDFDFCDGTTVVVTEDCGNRGPSLRTTTASGKLITEWCCRSCTLPPLRYRGEDGCWYGMEIRPLKEKEENLVNSLVTA | – | 6

Source: publication PMC3089955
